Measurements reported in publication PMC5802732, “A chiral selectivity relaxed paralog of DTD for proofreading tRNA mischarging in Animalia” (Nature Communications, 2018).

Biological target: the molecule itself
Assay: crystal structure; un-tagged MmATD alone; sitting-drop vapor diffusion, reservoir 0.1 M Bicine (pH 8.0) and 15% PEG1500; 1.86 Å; two monomers per asymmetric unit

B1: Animalia-specific tRNA deacylase from Mus musculus (enzyme)
chain: MADGGRVAQARALLQQCLHARLQVRPADGDAAAQWVEIRRGLVIYVCFFKGADTDLLPKMVNTLLNVKLSETETGKHVSILDLPGDVLIIPQATLGGRVKGRSMQYHSNSGKEEGSELYSQFVSLCEKAVANNTKSVEAGVAVAHGTYGNRQVLKLDTNGPYTHLIEF
notes: ATD (Animalia-specific tRNA deacylase, annotated in databases as probable DTD2) from Mus musculus; un-tagged protein used for crystallisation; gene PCR-amplified from cDNA into pET-28b; Homodimer in the crystal (two monomers per asymmetric unit, 325 residues modelled); also called MmATD; ATD; source: E. coli Rosetta(DE3), purified (cation exchange chromatography, SEC)
  binding result: binds
